Data on 1 protein can be found in article doi:10.1101/2019.12.30.891283 (bioRxiv, 2019).

The data set deals with the molecule itself. In words: native MS.

B1: enoyl-ACP reductase (FabI) from E. coli (enzyme)
chain: MGFLSGKRILVTGVASKLSIAYGIAQAMHREGAELAFTYQNDKLKGRVEEFAAQLGSDIVLQCDVAEDASIDTMFAELGKVWPKFDGFVHSIGFAPGDQLDGDYVNAVTREGFKIAHDISSYSFVAMAKACRSMLNPGSALLTLSYLGAERAIPNYNVMGLAKASLEANVRYMANAMGPEGVRVNAISAGPIRTLAASGIKDFRKMLAHCEAVTPIRRTVTIEDVGNSAAFLCSDLSAGISGEVVHVDGGFSIAAMNELELK
For orientation: stoichiometry N means a count of units in the complex or per binding partner. Take B1: the “stoichiometry N” value amounted to 4.
